Publication PMC7774954, “Interactomic affinity profiling by holdup assay: Acetylation and distal residues impact the PDZome-binding specificity of PTEN phosphatase” (PLoS ONE, 2020)

molecular target: fRSK1, fluorescein-labelled RSK1 PBM peptide; experiment: fluorescence polarisation; direct: N-terminally fluorescein-labelled PBM peptide (tracer) with increasing amounts of MBP-PDZ; 384-well plates; triplicate; direct binding model (ProFit)

| Kd | Substance |
| --- | --- |
| 3.96 µM | ARHGEF12-1, PDZ domain of ARHGEF12 (from UniProt Q9NZN5 1-1544) (domain or fragment) |
| 64.8 µM | HTRA1-1, PDZ domain of HTRA1 (from UniProt Q92743 23-480) (domain or fragment) |
| 6.87 µM | MAST2-1, PDZ domain of MAST2 (from UniProt Q6P0Q8 1-1798) (domain or fragment) |

molecular target: fpRSK1, fluorescein-labelled phosphorylated RSK1 PBM peptide; experiment: as above

| Kd | Substance |
| --- | --- |
| 20.4 µM | SNTA1-1, PDZ domain of SNTA1 (from UniProt Q13424 1-505) (domain or fragment) |
| 3.98 µM | SNTB1-1, PDZ domain of SNTB1 (from UniProt Q13884 1-538) (domain or fragment) |
| 21.9 µM | SNTG2-1, PDZ domain of SNTG2 (from UniProt Q9NY99 1-539) (domain or fragment) |

molecular target: f16E6, fluorescein-labelled HPV16 E6 PBM peptide (HPV16); experiment: as above

| Substance | Kd |
| --- | --- |
| MAST1-1, PDZ domain of MAST1 (from UniProt Q9Y2H9 1-1570) (domain or fragment) | 7.52 µM |

molecular target: GOPC-1, PDZ domain of GOPC (human) (UniProt Q9HD26); experiment: fluorescence polarisation; competitive: pre-formed complex of PDZ domain (>60-80% complex) and 50 nM fluorescent tracer peptide, increasing amount of unlabeled PTEN peptide (8 concentrations); 20 mM HEPES pH 7.5, 150 mM NaCl, 0.5 mM TCEP, 0.01% Tween 20; triplicate; competitive binding model (ProFit); apparent

| Kd | Substance |
| --- | --- |
| 131 µM | PTEN_11, 11-mer wild-type PDZ-binding motif peptide of PTEN |
| 82.1 µM | PTEN_13, 13-mer wild-type PDZ-binding motif peptide of PTEN |
| 70.2 µM | PTEN_Ac, 11-mer PTEN PDZ-binding motif peptide acetylated at K402 |
| 47.4 µM | PTEN_KR, 11-mer PTEN PDZ-binding motif peptide with K402R |

molecular target: SNTA1-1, PDZ domain of SNTA1 (human) (UniProt Q13424); experiment: as above
Sequence (Q13424 whole entry, the tested form may be a part): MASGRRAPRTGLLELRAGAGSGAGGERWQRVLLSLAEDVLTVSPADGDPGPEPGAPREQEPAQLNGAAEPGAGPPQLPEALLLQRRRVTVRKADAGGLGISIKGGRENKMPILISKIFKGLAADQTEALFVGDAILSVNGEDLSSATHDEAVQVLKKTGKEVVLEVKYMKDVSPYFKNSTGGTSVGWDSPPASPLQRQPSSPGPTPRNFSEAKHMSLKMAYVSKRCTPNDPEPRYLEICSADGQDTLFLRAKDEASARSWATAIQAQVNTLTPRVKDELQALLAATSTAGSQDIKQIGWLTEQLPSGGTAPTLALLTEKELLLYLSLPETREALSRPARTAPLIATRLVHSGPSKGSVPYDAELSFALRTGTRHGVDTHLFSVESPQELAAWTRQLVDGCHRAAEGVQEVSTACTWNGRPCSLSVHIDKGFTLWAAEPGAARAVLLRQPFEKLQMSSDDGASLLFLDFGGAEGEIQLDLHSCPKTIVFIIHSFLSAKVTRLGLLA

| Kd | Substance |
| --- | --- |
| 194 µM | PTEN_11, 11-mer wild-type PDZ-binding motif peptide of PTEN |
| 123 µM | PTEN_13, 13-mer wild-type PDZ-binding motif peptide of PTEN |
| 45.3 µM | PTEN_Ac, 11-mer PTEN PDZ-binding motif peptide acetylated at K402 |
| 65.1 µM | PTEN_KR, 11-mer PTEN PDZ-binding motif peptide with K402R |

molecular target: GRID2IP-2, second PDZ domain of GRID2IP (human) (UniProt A4D2P6); experiment: as above
Sequence (A4D2P6 279-356): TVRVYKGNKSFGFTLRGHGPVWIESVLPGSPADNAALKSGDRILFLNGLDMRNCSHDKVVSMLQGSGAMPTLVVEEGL

| Kd | Substance |
| --- | --- |
| 59.1 µM | PTEN_13, 13-mer wild-type PDZ-binding motif peptide of PTEN |

molecular target: MAST1-1, PDZ domain of MAST1 (human) (UniProt Q9Y2H9); experiment: as above

| Kd | Substance |
| --- | --- |
| 10.9 µM | PTEN_11, 11-mer wild-type PDZ-binding motif peptide of PTEN |
| 7.62 µM | PTEN_13, 13-mer wild-type PDZ-binding motif peptide of PTEN |
| 7.4 µM | PTEN_Ac, 11-mer PTEN PDZ-binding motif peptide acetylated at K402 |
| 9.11 µM | PTEN_KR, 11-mer PTEN PDZ-binding motif peptide with K402R |

molecular target: MAST2-1, PDZ domain of MAST2 (human) (UniProt Q6P0Q8); experiment: as above
Sequence (Q6P0Q8 whole entry, the tested form may be a part): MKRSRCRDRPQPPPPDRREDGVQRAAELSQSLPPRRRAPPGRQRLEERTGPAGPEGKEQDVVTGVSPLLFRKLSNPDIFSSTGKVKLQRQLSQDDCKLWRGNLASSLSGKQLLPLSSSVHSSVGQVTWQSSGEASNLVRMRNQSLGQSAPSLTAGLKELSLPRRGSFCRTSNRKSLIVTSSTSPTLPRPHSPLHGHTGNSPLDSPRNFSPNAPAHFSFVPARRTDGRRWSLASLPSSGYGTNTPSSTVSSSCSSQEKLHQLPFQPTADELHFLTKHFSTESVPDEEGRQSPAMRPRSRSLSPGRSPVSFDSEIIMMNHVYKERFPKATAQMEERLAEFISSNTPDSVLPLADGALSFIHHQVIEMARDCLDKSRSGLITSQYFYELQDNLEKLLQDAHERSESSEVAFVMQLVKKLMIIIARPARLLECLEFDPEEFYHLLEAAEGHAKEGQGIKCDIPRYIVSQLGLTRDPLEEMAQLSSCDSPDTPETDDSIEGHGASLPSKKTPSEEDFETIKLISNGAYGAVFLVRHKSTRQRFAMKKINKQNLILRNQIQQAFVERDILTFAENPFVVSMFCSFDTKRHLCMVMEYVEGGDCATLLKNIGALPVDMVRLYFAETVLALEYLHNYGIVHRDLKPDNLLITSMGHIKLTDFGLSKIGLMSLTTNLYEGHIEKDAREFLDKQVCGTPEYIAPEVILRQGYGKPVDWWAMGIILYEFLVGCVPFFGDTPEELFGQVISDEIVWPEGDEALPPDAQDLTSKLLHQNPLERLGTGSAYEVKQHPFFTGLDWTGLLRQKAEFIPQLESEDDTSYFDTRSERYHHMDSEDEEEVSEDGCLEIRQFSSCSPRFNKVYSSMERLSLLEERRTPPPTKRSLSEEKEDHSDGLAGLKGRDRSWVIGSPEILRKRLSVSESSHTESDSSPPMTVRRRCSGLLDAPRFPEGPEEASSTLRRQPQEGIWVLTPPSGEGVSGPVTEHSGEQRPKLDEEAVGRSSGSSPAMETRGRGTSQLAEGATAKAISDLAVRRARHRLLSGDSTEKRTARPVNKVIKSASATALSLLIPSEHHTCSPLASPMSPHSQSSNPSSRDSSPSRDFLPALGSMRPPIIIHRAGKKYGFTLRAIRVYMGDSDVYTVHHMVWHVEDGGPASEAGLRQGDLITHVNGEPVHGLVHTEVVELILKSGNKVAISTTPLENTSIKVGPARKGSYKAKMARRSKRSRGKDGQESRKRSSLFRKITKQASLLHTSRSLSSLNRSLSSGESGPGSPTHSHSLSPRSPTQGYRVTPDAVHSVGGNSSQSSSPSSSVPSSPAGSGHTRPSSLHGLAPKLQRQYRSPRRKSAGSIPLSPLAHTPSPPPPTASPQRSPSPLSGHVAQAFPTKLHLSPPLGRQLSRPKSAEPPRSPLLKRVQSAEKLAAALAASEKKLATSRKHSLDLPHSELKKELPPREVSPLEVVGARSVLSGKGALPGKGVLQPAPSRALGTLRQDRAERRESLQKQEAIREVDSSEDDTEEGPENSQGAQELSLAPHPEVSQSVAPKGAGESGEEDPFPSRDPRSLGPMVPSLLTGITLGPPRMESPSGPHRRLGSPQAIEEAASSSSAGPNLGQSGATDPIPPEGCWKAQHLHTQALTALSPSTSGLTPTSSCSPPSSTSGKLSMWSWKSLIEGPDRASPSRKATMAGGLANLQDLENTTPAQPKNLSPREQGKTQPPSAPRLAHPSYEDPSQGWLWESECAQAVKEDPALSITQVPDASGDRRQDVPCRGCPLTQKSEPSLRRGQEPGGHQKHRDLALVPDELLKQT

| Kd | Substance |
| --- | --- |
| 1.28 µM | PTEN_13, 13-mer wild-type PDZ-binding motif peptide of PTEN |
| 2.56 µM | PTEN_Ac, 11-mer PTEN PDZ-binding motif peptide acetylated at K402 |
| 2.39 µM | PTEN_KR, 11-mer PTEN PDZ-binding motif peptide with K402R |

molecular target: SNTB1-1, PDZ domain of SNTB1 (human) (UniProt Q13884); experiment: as above
Sequence (Q13884 whole entry, the tested form may be a part): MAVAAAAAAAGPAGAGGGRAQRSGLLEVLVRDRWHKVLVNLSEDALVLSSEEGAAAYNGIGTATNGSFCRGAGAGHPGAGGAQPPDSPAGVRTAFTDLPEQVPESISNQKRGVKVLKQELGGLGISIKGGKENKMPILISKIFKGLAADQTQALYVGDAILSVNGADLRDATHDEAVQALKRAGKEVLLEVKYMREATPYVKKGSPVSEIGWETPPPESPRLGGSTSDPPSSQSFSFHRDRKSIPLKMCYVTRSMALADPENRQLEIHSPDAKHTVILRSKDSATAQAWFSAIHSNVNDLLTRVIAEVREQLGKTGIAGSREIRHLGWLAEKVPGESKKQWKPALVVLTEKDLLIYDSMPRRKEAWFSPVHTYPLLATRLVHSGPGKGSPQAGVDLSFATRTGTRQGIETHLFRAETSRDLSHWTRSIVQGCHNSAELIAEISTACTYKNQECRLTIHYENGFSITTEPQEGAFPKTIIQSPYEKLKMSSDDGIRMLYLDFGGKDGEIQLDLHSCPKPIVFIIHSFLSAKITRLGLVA

| Kd | Substance |
| --- | --- |
| 67 µM | PTEN_11, 11-mer wild-type PDZ-binding motif peptide of PTEN |
| 44.5 µM | PTEN_13, 13-mer wild-type PDZ-binding motif peptide of PTEN |
| 14.5 µM | PTEN_Ac, 11-mer PTEN PDZ-binding motif peptide acetylated at K402 |
| 24.4 µM | PTEN_KR, 11-mer PTEN PDZ-binding motif peptide with K402R |

molecular target: SNX27-1, PDZ domain of SNX27 (human) (UniProt Q96L92); experiment: as above

| Kd | Substance |
| --- | --- |
| 13.8 µM | PTEN_11, 11-mer wild-type PDZ-binding motif peptide of PTEN |
| 7.95 µM | PTEN_13, 13-mer wild-type PDZ-binding motif peptide of PTEN |
| 4.07 µM | PTEN_Ac, 11-mer PTEN PDZ-binding motif peptide acetylated at K402 |
| 8.32 µM | PTEN_KR, 11-mer PTEN PDZ-binding motif peptide with K402R |

molecular target: ARHGEF12-1, PDZ domain of ARHGEF12 (human) (UniProt Q9NZN5); experiment: as above
Sequence (Q9NZN5 whole entry, the tested form may be a part): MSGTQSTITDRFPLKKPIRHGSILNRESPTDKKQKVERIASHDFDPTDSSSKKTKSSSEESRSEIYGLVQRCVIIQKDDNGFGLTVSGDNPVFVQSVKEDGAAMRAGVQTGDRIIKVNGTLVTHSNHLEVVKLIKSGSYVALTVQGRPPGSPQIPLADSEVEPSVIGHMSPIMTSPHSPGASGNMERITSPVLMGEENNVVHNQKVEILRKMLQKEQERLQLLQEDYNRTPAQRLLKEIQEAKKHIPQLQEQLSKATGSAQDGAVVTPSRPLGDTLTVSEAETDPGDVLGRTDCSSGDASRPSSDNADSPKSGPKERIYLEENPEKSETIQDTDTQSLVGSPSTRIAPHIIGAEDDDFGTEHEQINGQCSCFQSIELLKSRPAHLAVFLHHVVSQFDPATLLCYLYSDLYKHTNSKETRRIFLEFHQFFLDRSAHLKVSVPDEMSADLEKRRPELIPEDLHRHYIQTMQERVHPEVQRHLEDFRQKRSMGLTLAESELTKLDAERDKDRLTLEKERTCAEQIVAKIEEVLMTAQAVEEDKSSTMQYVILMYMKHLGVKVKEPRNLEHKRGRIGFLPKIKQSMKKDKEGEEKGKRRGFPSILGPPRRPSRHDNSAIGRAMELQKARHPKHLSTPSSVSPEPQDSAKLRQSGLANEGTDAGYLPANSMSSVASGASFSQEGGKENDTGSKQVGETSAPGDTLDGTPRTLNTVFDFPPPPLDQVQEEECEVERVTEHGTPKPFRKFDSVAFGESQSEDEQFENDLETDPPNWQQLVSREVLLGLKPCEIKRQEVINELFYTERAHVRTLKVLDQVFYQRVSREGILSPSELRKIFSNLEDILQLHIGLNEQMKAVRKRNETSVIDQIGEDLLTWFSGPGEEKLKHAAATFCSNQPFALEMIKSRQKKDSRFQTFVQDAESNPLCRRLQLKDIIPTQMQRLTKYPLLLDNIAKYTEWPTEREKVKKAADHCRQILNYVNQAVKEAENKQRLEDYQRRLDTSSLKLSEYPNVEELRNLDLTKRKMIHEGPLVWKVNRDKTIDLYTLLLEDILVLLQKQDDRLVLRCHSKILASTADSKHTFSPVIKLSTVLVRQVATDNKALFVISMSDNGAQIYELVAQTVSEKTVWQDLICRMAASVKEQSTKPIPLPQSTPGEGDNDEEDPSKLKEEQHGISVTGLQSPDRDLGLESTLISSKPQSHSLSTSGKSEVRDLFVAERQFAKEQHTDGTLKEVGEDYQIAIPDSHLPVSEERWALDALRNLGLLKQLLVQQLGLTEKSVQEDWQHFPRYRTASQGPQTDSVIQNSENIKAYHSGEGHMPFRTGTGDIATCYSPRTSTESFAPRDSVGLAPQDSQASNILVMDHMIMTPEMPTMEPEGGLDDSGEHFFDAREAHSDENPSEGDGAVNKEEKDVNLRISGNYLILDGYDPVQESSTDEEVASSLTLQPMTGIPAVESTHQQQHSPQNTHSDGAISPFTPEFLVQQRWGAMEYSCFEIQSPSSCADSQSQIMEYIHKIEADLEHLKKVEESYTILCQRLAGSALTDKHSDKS

| Kd | Substance |
| --- | --- |
| 113 µM | PTEN_11, 11-mer wild-type PDZ-binding motif peptide of PTEN |
| 100 µM | PTEN_13, 13-mer wild-type PDZ-binding motif peptide of PTEN |
| 65.5 µM | PTEN_Ac, 11-mer PTEN PDZ-binding motif peptide acetylated at K402 |
| 114 µM | PTEN_KR, 11-mer PTEN PDZ-binding motif peptide with K402R |

molecular target: HTRA1-1, PDZ domain of HTRA1 (human) (UniProt Q92743); experiment: as above
Sequence (Q92743 23-480): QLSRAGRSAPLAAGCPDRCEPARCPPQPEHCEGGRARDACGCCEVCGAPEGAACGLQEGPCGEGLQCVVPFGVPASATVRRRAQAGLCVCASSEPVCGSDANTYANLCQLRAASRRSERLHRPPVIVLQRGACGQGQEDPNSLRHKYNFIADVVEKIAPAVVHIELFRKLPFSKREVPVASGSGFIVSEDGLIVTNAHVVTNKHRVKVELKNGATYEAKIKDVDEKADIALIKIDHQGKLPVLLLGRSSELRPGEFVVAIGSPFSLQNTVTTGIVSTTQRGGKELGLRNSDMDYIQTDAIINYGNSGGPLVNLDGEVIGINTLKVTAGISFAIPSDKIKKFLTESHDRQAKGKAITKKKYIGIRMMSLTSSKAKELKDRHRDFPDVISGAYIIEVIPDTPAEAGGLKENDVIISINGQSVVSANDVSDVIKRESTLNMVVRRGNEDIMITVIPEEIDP

| Kd | Substance |
| --- | --- |
| 25.3 µM | PTEN_13, 13-mer wild-type PDZ-binding motif peptide of PTEN |
| 10.2 µM | PTEN_Ac, 11-mer PTEN PDZ-binding motif peptide acetylated at K402 |
| 36.2 µM | PTEN_KR, 11-mer PTEN PDZ-binding motif peptide with K402R |

molecular target: SNTG2-1, PDZ domain of SNTG2 (human) (UniProt Q9NY99); experiment: as above

| Kd | Substance |
| --- | --- |
| 377 µM | PTEN_Ac, 11-mer PTEN PDZ-binding motif peptide acetylated at K402 |
| 141 µM | PTEN_KR, 11-mer PTEN PDZ-binding motif peptide with K402R |

molecular target: MAST1-1 (human); experiment: fluorescence polarisation; competitive: 50 nM fluorescent tracer peptide pre-formed with the PDZ domain (>60-80% complex), unlabeled peptide added at 8 concentrations; 20 mM HEPES pH 7.5, 150 mM NaCl, 0.5 mM TCEP, 0.01% Tween 20; triplicate; apparent

| Kd | Substance |
| --- | --- |
| 8 µM | PTEN_13 (from UniProt P60484 391-403) (peptide) |

molecular target: SNX27-1 (human); experiment: as above

| Kd | Substance |
| --- | --- |
| 14 µM | PTEN_11 (from UniProt P60484 393-403) (peptide) |
| 8 µM | PTEN_KR (from UniProt P60484 393-403) (peptide) |

molecular target: MAST2-1 (human); experiment: as above

| Kd | Substance |
| --- | --- |
| 1 µM | PTEN_13 (from UniProt P60484 391-403) (peptide) |

molecular target: PTEN_13 (human) (UniProt P60484); experiment: holdup assay; biotinylated PBM peptide saturating streptavidin resin (biotin resin as reference); tag-PDZ at 4 uM in crude E. coli lysate, 15 min, filtration, free tag-PDZ by capillary electrophoresis; singlicate; BI cut-off 0.20; BI converted into KD with the peptide concentration back-calculated from FP

| Kd | Substance |
| --- | --- |
| 64 µM | SNTB2-1 (domain or fragment) |
| 6 µM | SNX27-1 (domain or fragment) |

molecular target: PTEN_Ac (human) (UniProt P60484); experiment: as above

| Kd | Substance |
| --- | --- |
| 36 µM | DLG1-2 (from UniProt Q12959 319-405) (domain or fragment) |
| 39 µM | MAGI3-2 (from UniProt Q5TCQ9 410-492) (domain or fragment) |
| 26 µM | MAST1-1 (domain or fragment) |
| 4 µM | MAST2-1 (domain or fragment) |
| 85 µM | MAST3-1 (domain or fragment) |
| 10 µM | PTPN13-4 (from UniProt Q12923 1788-1868) (domain or fragment) |
| 4 µM | SNX27-1 (domain or fragment) |

molecular target: PTEN_11 (human) (UniProt P60484); experiment: as above

| Kd | Substance |
| --- | --- |
| 39 µM | MAST1-1 (domain or fragment) |
| 13 µM | MAST2-1 (domain or fragment) |
| 241 µM | MAST3-1 (domain or fragment) |
| 35 µM | NHERF2-2 (from UniProt Q15599 150-230) (domain or fragment) |
| 160 µM | PARD3-3 (from UniProt Q8TEW0 590-677) (domain or fragment) |
| 148 µM | PTPN13-2 (from UniProt Q12923 1368-1452) (domain or fragment) |

molecular target: PTEN_KR (human) (UniProt P60484); experiment: as above

| Kd | Substance |
| --- | --- |
| 32 µM | MAST1-1 (domain or fragment) |
| 7 µM | MAST2-1 (domain or fragment) |
| 82 µM | MAST3-1 (domain or fragment) |
